According to patent US20060127409A1 (published 2006):

What was measured:
[1] = target: T1, HLA-A0201 molecule on T2 cells (TAP-, HLA-A0201+) (human); experiment: T2 binding and stabilization assay, flow cytometry with BB7.2
T1 construct: Empty, thermolabile HLA-A0201 on TAP-deficient T2 cells, stabilised by added peptide; surface level read with mAb BB7.2; also called HLA-A2.1; HLA-A2
Procedure: (§1) T2 cells (TAP-, HLA-A0201⁺) were incubated overnight at 37° C. at a concentration of 1×10⁶ cells/ml in FCS-free RPMI medium supplemented with 5 μg/ml human β₂m (Sigma, St Louis, Mo.) in the absence (negative control) or presence of either a positive reference tyrosinase peptide or test peptides at various final concentrations (50, 10, 1, and 0.1 micrograms (μg)/ml). Following a 4-hour incubation with 5 μg/ml brefeldin A (Sigma), T2 cells were labeled for 30 minutes at 4° C. with a saturating concentration of anti-HLA-A2.1 (BB7.2) mAb, then washed twice. Cells were then incubated for 30 minutes, 4° C. with a saturating concentration of FITC-conjugated goat IgG F(ab′)2 anti-mouse Ig (Caltag, San Francisco, Calif.), washed twice, fixed in PBS/1% paraformaldehyde and analyzed using a FACS Calibur® cytofluorometer (Becton Dickinson, Immunocytometry Systems, San Jose, Calif.)
(§2) The mean intensity of fluorescence (MIF) observed for each peptide concentration (after dividing by the MIF in the absence of peptide) was used as an indication of peptide binding and expressed as a “fluorescence index.” Stabilization assays were performed similarly. Following initial evaluation of peptide binding at time 0, cells were washed in RPMI complete medium to remove free peptides and incubated in the continuous presence of 0.5 μg/ml brefeldin-A for 2, 4, 6 or 8 hours.

[2] = target: T1, HLA-A0201 molecule on T2 cells (TAP-, …); experiment: refers to the T2 assay
Procedure: as §1, §2

B1: b2a2 A3 (analogue) (peptide)
peptide: YLINKEEAL
notes: Synthetic analogue of b2a2A; also called YLINKEEAL
[1]
  binding result: binds

## YLINKEEAV (Synthetic analogue of b2a2A) [b2a2 A4 (analogue)]
[1]
  binding result: binds

B2: b2a2 A5 (analogue) (peptide)
peptide: YLINKVEAL
notes: Synthetic analogue of b2a2A; also called YLINKVEAL
[1]
  binding result: binds

## SSKALQRPV (Synthetic 9-mer) [CMLA2 native (p210-b3a2)]
[2]
  binding result: binds

## KALQRPVAS [p210Cn native (p210-b3a2)]
[1]
  binding result: binds
